Square brackets hold non-standard residues; d marks the D form. Ends that are not written are not given here. Arg(Me2a) = CN(C)C(=N)NCCC[C@H](N)C(=O)O; Lys(Me3) = C[N+](C)(C)CCCC[C@H](N)C(=O)O; Arg(Me2s) = CN=C(NC)NCCC[C@H](N)C(=O)O; pT = C[C@@H](OP(=O)(O)O)[C@H](N)C(=O)O; Lys(Me2) = CN(C)CCCC[C@H](N)C(=O)O; pS = N[C@@H](COP(=O)(O)O)C(=O)O; Lys(Me) = CNCCCC[C@H](N)C(=O)O; Me2a = not defined here
T1: CaBdf1 BD2 (GST-tagged, wild-type) (Candida albicans (strain SC5314 / ATCC …, UniProt Q5A4W8))
T1 chain: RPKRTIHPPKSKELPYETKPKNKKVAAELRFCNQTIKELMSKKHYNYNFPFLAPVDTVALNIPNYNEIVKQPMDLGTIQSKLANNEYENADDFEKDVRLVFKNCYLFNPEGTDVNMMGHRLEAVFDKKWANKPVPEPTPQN

T2: CaBdf1 BD1 (GST-tagged, wild-type) (Candida albicans (strain SC5314 / ATCC …, UniProt Q5A4W8))
T2 chain: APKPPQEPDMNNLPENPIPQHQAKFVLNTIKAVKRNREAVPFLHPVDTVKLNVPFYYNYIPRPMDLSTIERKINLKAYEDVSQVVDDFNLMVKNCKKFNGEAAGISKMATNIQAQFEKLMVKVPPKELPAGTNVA


Molecular target: T1, CaBdf1 BD2 (GST-tagged, wild-type)
Experiment: histone peptide array (Active Motif MODified), 1 uM GST-tagged bromodomain, anti-GST detection, normalized mean intensity
A[Arg(Me2a)]T[Lys(Me2)]QTAR[Lys(Me2)]STGGKAPRKQ gave a binding score of 0.00222.
A[Arg(Me2s)]TK(Ac)QTA[Arg(Me2a)][Lys(Me)]STGGKAPRKQ gave a binding score of 0.00296.
ARTKQTARKSTGGKAPRKQ (A R T K Q T A Rme2s Kme1 S pT G G K A P R K Q) was tested, and the binding score was 0.00407.
Binder ARTKQTARKSTGGKAPRKQ (A R T Kme3 Q T A Rme2s Kme2 S T G G K A P R K Q) has a binding score of 0.00407.
ARTKQTARKSTGGKAPRKQ (A Rme2s T Kme2 Q T A Rme2a Kme2 S T G G K A P R K Q) gave a binding score of 0.00666.
Binder PRKQLATKAARK(Me2)[pS]APATGG has a binding score of 0.00074.
ARTKQTARKSTGGKAPRKQ (A R T K Q T A Rme2s Kme2 S pT G G K A P R K Q) gave a binding score of 0.00259.
For ARTKQTARKSTGGKAPRKQ (A Rme2s T Kme1 Q T A Rme2s Kac S T G G K A P R K Q), the binding score was 0.00555.
ARTKQTARKSTGGKAPRKQ (A R T K Q T A Rme2a Kme2 pS T G G K A P R K Q) was tested, and the binding score was 0.00259.
ARTKQTARKSTGGKAPRKQ (A Rme2a T Kme3 Q T A Rme2a Kme3 S T G G K A P R K Q) showed a binding score of 0.00333.
A[Arg(Me2a)][pT][Lys(Me3)]QTARKSTGGKAPRKQ gave a binding score of 0.00074.
In the case of SGRGKGGKGLGKGGAKRHR (S G Rme2a G Kac G G Kac G L G Kac G G A K R H R), the binding score is reported as 0.375.
ARTKQTARKSTGGKAPRKQ (A Rme2s pT Kme3 Q T A R K S T G G K A P R K Q) gave a binding score of 0.00185.
For PRKQLATKAAR(Me2a)K(Me)[pS]APATGG (reading uncertain), the binding score was 0.00703.
PRKQLATKAARK[pS]APATGG gave a binding score of 0.00555.
SGRGKGGKGLGKGGAKRHR (S G Rme2s G Kac G G Kac G L G Kac G G A K R H R) was tested, and the binding score was 0.332.
Work on A[Arg(Me2a)]T[Lys(Me)]QTA[Arg(Me2s)][Lys(Me)]STGGKAPRKQ yielded a binding score of 0.0037.
PRKQLATKAA[Arg(Me2a)]K[pS]APATGG showed a binding score of 0.00407.
Work on SGRGKQGGK(Ac)ARAKAKSRSS yielded a binding score of 0.00814.
Work on ARTKQTARKSTGGKAPRKQ (A Rme2s T Kac Q T A Rme2a Kme3 S T G G K A P R K Q) yielded a binding score of 0.00407.
Binder ARTKQTARKSTGGKAPRKQ (A Rme2s T Kac Q T A R Kme3 S T G G K A P R K Q) has a binding score of 0.00259.
With [pS]GRGKQGGKARAK(Ac)AKSRSS the binding score was 0.02.
Work on [pS]GRGKQGGK(Ac)ARAK(Ac)AKSRSS yielded a binding score of 0.00592.
For AR(me2s)TK(Me)QTARKSTGGKAPRKQ, the binding score was 0.00037.
SGRGK(Ac)QGGKARAK(Ac)AKSRSS gave a binding score of 0.0859.

Molecular target: T2, CaBdf1 BD1 (GST-tagged, wild-type)
Experiment: as above
Work on A[Arg(Me2a)]T[Lys(Me2)]QTAR[Lys(Me2)]STGGKAPRKQ yielded a binding score of 0.00399.
A[Arg(Me2s)]TK(Ac)QTA[Arg(Me2a)][Lys(Me)]STGGKAPRKQ gave a binding score of 0.00834.
ARTKQTARKSTGGKAPRKQ (A R T K Q T A Rme2s Kme1 S pT G G K A P R K Q) gave a binding score of 0.0029.
ARTKQTARKSTGGKAPRKQ (A R T Kme3 Q T A Rme2s Kme2 S T G G K A P R K Q) was tested, and the binding score was 0.00254.
ARTKQTARKSTGGKAPRKQ (A Rme2s T Kme2 Q T A Rme2a Kme2 S T G G K A P R K Q) showed a binding score of 0.0029.
PRKQLATKAARK(Me2)[pS]APATGG gave a binding score of 0.0029.
ARTKQTARKSTGGKAPRKQ (A R T K Q T A Rme2s Kme2 S pT G G K A P R K Q) was tested, and the binding score was 0.00906.
In the case of ARTKQTARKSTGGKAPRKQ (A Rme2s T Kme1 Q T A Rme2s Kac S T G G K A P R K Q), the binding score is reported as 0.0344.
With ARTKQTARKSTGGKAPRKQ (A R T K Q T A Rme2a Kme2 pS T G G K A P R K Q) the binding score was 0.00471.
Work on ARTKQTARKSTGGKAPRKQ (A Rme2a T Kme3 Q T A Rme2a Kme3 S T G G K A P R K Q) yielded a binding score of 0.00399.
Binder A[Arg(Me2a)][pT][Lys(Me3)]QTARKSTGGKAPRKQ has a binding score of 0.00725.
SGRGKGGKGLGKGGAKRHR (S G Rme2a G Kac G G Kac G L G Kac G G A K R H R) was tested, and the binding score was 0.236.
In the case of ARTKQTARKSTGGKAPRKQ (A Rme2s pT Kme3 Q T A R K S T G G K A P R K Q), the binding score is reported as 0.00363.
For PRKQLATKAAR(Me2a)K(Me)[pS]APATGG (reading uncertain), the binding score was 0.0029.
Binder PRKQLATKAARK[pS]APATGG has a binding score of 0.00218.
For SGRGKGGKGLGKGGAKRHR (S G Rme2s G Kac G G Kac G L G Kac G G A K R H R), the binding score was 0.175.
A[Arg(Me2a)]T[Lys(Me)]QTA[Arg(Me2s)][Lys(Me)]STGGKAPRKQ gave a binding score of 0.00471.
In the case of PRKQLATKAA[Arg(Me2a)]K[pS]APATGG, the binding score is reported as 0.00435.
SGRGKQGGK(Ac)ARAKAKSRSS was tested, and the binding score was 0.0276.
Work on ARTKQTARKSTGGKAPRKQ (A Rme2s T Kac Q T A Rme2a Kme3 S T G G K A P R K Q) yielded a binding score of 0.00471.
With ARTKQTARKSTGGKAPRKQ (A Rme2s T Kac Q T A R Kme3 S T G G K A P R K Q) the binding score was 0.00616.
[pS]GRGKQGGKARAK(Ac)AKSRSS showed a binding score of 0.0906.
[pS]GRGKQGGK(Ac)ARAK(Ac)AKSRSS showed a binding score of 0.0642.
Work on AR(me2s)TK(Me)QTARKSTGGKAPRKQ yielded a binding score of 0.00326.
With SGRGK(Ac)QGGKARAK(Ac)AKSRSS the binding score was 0.109.

Source: article PMC5454392, “Selective BET bromodomain inhibition as an antifungal therapeutic strategy” (Nature Communications, 2017)
